For this experiment, the target named is T1, transformation of SerpinB3 to Pso p27 with chymase (Homo sapiens, UniProt P29508).
T1 construct: made in house; host or cells: Escherichia coli BL21 (DE3) RIPL (Stratagene)
T1 sequence (P29508 1-390): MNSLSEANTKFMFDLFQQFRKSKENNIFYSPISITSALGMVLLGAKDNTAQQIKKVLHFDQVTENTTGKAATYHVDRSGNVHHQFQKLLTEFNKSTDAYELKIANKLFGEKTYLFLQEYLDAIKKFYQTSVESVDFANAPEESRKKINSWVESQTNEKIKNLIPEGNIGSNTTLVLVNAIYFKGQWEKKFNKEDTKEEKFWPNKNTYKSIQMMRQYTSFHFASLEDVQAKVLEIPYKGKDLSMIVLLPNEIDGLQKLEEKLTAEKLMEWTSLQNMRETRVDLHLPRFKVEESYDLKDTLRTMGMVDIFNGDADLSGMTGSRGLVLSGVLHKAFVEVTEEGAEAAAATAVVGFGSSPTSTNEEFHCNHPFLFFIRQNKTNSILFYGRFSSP
In words: Test of peptides: inhibition of chymase transformation of SerpinB3 to Pso p27, SDS-gel-electrophoresis. The format is biochemical. Particulars: SerpinB3 2 μg in 35 μl PBS, peptide 5 μl (10 mg/ml) 1 hour at 37C°, then 1 μl chymase over night at 37C°. The method, then:
In this Example, peptides were tested in order to find out whether they are able to prevent and/or inhibit the formation of Pso p27. The peptides were purchased from Biomatik Corporation, 4 Third Ave, Kitchener, Ontario, N2C 1N6, Canada, and analyzed with respect to prevention and/or inhibiting potential. The following methods were used:
Expression vector pMCSG7 Serpin B3 (Clone ID: HsCD00343153) was used. Recombinant SerpinB3 was expressed in Escherichia coli BL21 (DE3) RIPL (Stratagene) and purified as described by Lysvand H, Helland R, Hagen L, Slupphaug G, Iversen OJ., “Psoriasis pathogenesis-Pso p27 is generated from SCCA 1 with chymase”, Biochim. Biophys. Acta 1842 (2014) 734-738.
SerpinB3 solved in phosphate-buffered saline (PBS) (2 μg in 35 μl PBS) was incubated with a tripeptide or tetrapeptide 5 μl (10 mg/ml) for 1 hour at 37C°. 1 μl chymase was added and the mixture was incubated over night at 37C°. The solution was analyzed by SDS-gel-electrophoresis.
SDS-gel-electrophoresis was performed as described by Iversen O J, Lysvand H, Hagen L., “The autoantigen Pso p27: a post-translational modification of SCCA molecules”, Autoimmunity 44 (2011) 229-234.
Take Asp-Asp-Lys-Pro (DDKP) [tetrapeptide]: the “prevention and/or inhibition of the cleavage reaction of the serpin molecules SerpinB3/B4, and/or prevention and/or inhibition of the formation of Pso p27” value (“prevention and/or inhibition” below) is “effective”.

For the substance Asp-Asp-Pro [DDP], the “prevention and/or inhibition” value was “effective”.

Turning to Asp-Asp-Pro-Lys (DDPK) [tetrapeptide], the “prevention and/or inhibition” value is “effective”. Regarding Asp-Glu-Leu-Pro (DELP) [tetrapeptide], the “prevention and/or inhibition” value was “effective”. With Asp-Glu-Pro [DEP], the “prevention and/or inhibition” value is “effective”. As to Asp-Glu-Pro-Asn (DEPN) [tetrapeptide], the “prevention and/or inhibition” value was “effective”.

On to Asp-Glu-Pro-Leu (DEPL) [tetrapeptide], for which the “prevention and/or inhibition” value is recorded as “effective”. As to Asp-Leu-Glu-Pro (DLEP) [tetrapeptide], the “prevention and/or inhibition” value is “effective”. For Asp-Lys-Pro-Asp (DKPD) [tetrapeptide], the “prevention and/or inhibition” value was “effective”.

Consider Asp-Pro-Asn-Glu (DPNE) [tetrapeptide], for which the “prevention and/or inhibition” value was “effective”. Regarding Asp-Pro-Glu [DPE], the “prevention and/or inhibition” value was “effective”.

For the substance Asp-Pro-Glu-Asn (DPEN) [tetrapeptide], the “prevention and/or inhibition” value was “effective”.

For the substance Asp-Pro-Glu-Leu (DPEL) [tetrapeptide], the “prevention and/or inhibition” value was “effective”. As for Asp-Pro-Leu-Glu (DPLE) [tetrapeptide], the “prevention and/or inhibition” value is reported as “effective”. Then Glu-Asn-Asp-Pro (ENDP) [tetrapeptide], with “effective”. Turning to Glu-Asp-Asn-Pro (EDNP) [tetrapeptide], the “prevention and/or inhibition” value is reported as “effective”.

Turning to Glu-Asp-Leu-Pro (EDLP) [tetrapeptide], the “prevention and/or inhibition” value is on record as “effective”. With Glu-Pro-Asp [EPD], the “prevention and/or inhibition” value is “effective”.

Values taken from patent US20250134947A1, “TRI-, TETRA AND PENTAPEPTIDES, COMPOSITIONS THEREOF AND THEIR USE IN THE THERAPY OF PSORIASIS” (ENUMITA AS, priority 2021, published 2025).
